Here are results for 1 protein from paper PMC9425029, “Secretagogin is a Ca^2+-dependent stress-responsive chaperone that may also play a role in aggregation-based proteinopathies” (The Journal of Biological Chemistry, 2022).

The data set concerns the molecule itself. Put plainly: SAXS; oxidizing conditions (100 μM H2O2), SCGN about 5-15 mg/ml, without or with 8 mM Ca2+; 50 mM Tris pH 7.5, 100 mM KCl.

B1: Secretagogin (mouse SCGN) (natural protein, UniProt Q91WD9 1-276, looked up)
chain: MDNARRKTPARLDAACFWQIWQRFDKEEKGYIRETELDAFFDHLLAKSGTEDTLMEENVQKVKEQLMTSHNVSKEGRILMKELASMFLSEDENFLLFFRLETPLDNSVEFMQIWRKYDADSSGFISAAELCNFLRDLFLHHKKNISEAELEEYTSTMMKIFDKNKDGRLDLNDLARILALQENFLLQFKMDASSTEERKRDFEKIFAHYDVSKTGALEGPEVDGFVKDMMELVQPSISGVDLDKFREILLRHCDVNKDGKIQKSELALCLGLKINP
notes: secretagogin, mouse, cloned in pET21b; Used Ca2+-free (apo) or with Ca2+ (holo); the assays tell them apart; also called apo-SCGN; holo-SCGN; source: E. coli BL21-DE3 (pET21b), purified (Ni-NTA-Sepharose, size-exclusion chromatography), decalcified with EDTA
As to B1, the binding result is on record as “binds”.
